Values of other authors in patent publication US7759315B2, “Treatment of inflammatory conditions of the intestine” (CSL Behring AG, priority 2005, dated 2010).
Non-standard residues stand in square brackets, D forms with d. No end group written: not given here. Orn = NCCC[C@H](N)C(=O)O; Aib = CC(C)(N)C(=O)O

target: T1, LCAT (Homo sapiens, UniProt P04180); conditions: not given
T1 sequence (P04180 25-440): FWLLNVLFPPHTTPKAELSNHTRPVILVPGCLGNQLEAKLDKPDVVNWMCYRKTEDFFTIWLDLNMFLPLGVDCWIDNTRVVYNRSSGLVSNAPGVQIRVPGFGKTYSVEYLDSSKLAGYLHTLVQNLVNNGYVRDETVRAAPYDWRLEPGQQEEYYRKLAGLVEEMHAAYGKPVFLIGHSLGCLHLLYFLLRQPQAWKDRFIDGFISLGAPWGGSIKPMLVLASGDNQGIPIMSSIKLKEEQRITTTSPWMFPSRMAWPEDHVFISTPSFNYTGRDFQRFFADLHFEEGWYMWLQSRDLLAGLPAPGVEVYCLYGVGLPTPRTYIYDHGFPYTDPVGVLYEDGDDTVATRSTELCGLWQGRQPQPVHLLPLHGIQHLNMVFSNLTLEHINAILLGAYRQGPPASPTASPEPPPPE

In order of falling “ACTIVITY (%) LCAT” value:
1. PVLDLLRELLEELKQKLK* (not fully specified (N-terminus, C-terminus); printed as PVLDLLRELLEELKQKLK*) [Peptide 191]  100%
2. PVLDLFKELLEELKQKLK* (not fully specified (N-terminus, C-terminus); printed as PVLDLFKELLEELKQKLK*) [Peptide 192]  100%
3. pVLDLFRELLNELLEALKQKLKK ([dP]VLDLFRELLNELLEALKQKLKK; not fully specified (C-terminus); printed as pVLDLFRELLNELLEALKQKLKK) [Peptide 5]  90%
4. PVLDLFRELLEELKNKLK* (not fully specified (N-terminus, C-terminus); printed as PVLDLFRELLEELKNKLK*) [Peptide 196]  81%
5. PLLDLFKELLEELKQKLK* (not fully specified (N-terminus, C-terminus); printed as PLLDLFKELLEELKQKLK*) [Peptide 201]  74%
6. PVLDLFRELLNELLEAGKQKLK [Peptide 12]  70%
7. PVLDFFRELLEELKQKLK* (not fully specified (N-terminus, C-terminus); printed as PVLDFFRELLEELKQKLK*) [Peptide 204]  63%
8. PVLELFKELLQELLEALKQKLK [Peptide 17]  59%
9. PVLDLFREGLNELLEALKQKLK [Peptide 20]  57%
10. PLLELFENLLERLLDALQKKLK [Peptide 150]  57%
11. pVLDLFRELLNELLEALKQKLK [Peptide 21]  57%
12. PLLELLKELLEELKQKLK* (not fully specified (N-terminus, C-terminus); printed as PLLELLKELLEELKQKLK*) [Peptide 206]  57%
13. PVLDLFRELLNELLEGLKQKLK [Peptide 22]  54%
14. PLLELFKELLQELLEALKQKLK [Peptide 23]  54%
15. PVLELLKELLEELKQKLK* (not fully specified (N-terminus, C-terminus); printed as PVLELLKELLEELKQKLK*) [Peptide 207]  50%
16. PALELFKDLLEELRQRLK* (not fully specified (N-terminus, C-terminus); printed as PALELFKDLLEELRQRLK*) [Peptide 208]  48%
17. PVLDLFRELLNELLELLKQKLK [Peptide 127]  47%
18. PVLDLFRELLEELOQOLO* (PVLDLFRELLEEL[Orn]Q[Orn]L[Orn]; not fully specified (N-terminus, C-terminus); printed as PVLDLFRELLEELOQOLO*) [Peptide 211]  45%
19. AVLDLFRELLNELLEALKQKLK [Peptide 29]  39%
20. pVLDLFRELLEELKQKLK* ([dP]VLDLFRELLEELKQKLK; not fully specified (N-terminus, C-terminus); printed as pVLDLFRELLEELKQKLK*; also: * mark of unstated meaning) [Peptide 214]  39%
21. PVLELFLNLLERLLDALQKKLK [Peptide 156]  35%
22. PVLEFFENLLERLLDALQKKLK [Peptide 157]  30%
23. PVLDLFRELLNELLQKLK* (not fully specified (N-terminus, C-terminus); printed as PVLDLFRELLNELLQKLK*) [Peptide 218]  29%
24. PVLELFENLLERLLEALQKKLK [Peptide 161]  27%
25. PVLDEFREKLWEXLEALKQKLK (PVLDEFREKLWE[Aib]LEALKQKLK; not fully specified (C-terminus)) [Peptide 43]  25%
26. PVLELFENLLERLLDLLQKKLK [Peptide 165]  23%
27. EWLKAFYEKVLEKLKELF* (Ac-EWLKAFYEKVLEKLKELF-NH2) [Peptide 238, Ac-18AMOD-C(O)NH2 peptide (Epand et al., 1987), reference compound]  19%
28. VVLDLFRELLNELLEALKQKLK [Peptide 53]  19%
29. PVLELFENGLERLLDALQKKLK [Peptide 167]  18%
30. PVLDEFREKLNEXLEALKQKL~ (PVLDEFREKLNE[Aib]LEALKQKL; not fully specified (C-terminus); printed as PVLDEFREKLNEXLEALKQKL~) [Peptide 58]  18%
31. PVLDLFRNLLEELLKALEQKLK [Peptide 57]  18%
32. PVLELFEQLLEKLLDALQKKLK [Peptide 168]  17%
33. PVLELFENLLEOLLDALQOOLO (PVLELFENLLE[Orn]LLDALQ[Orn][Orn]L[Orn]) [Peptide 170]  17%
34. PVLELFENLLEKLLDLLQKKLK [Peptide 171]  16%
35. PVLELFLNLLERLGDALQKKLK [Peptide 172]  16%
36. PVLDFFREKLNEXLEALKQKLK (PVLDFFREKLNE[Aib]LEALKQKLK; not fully specified (C-terminus)) [Peptide 63]  16%
37. PVLDEFRWKLNEXLEALKQKLK (PVLDEFRWKLNE[Aib]LEALKQKLK; not fully specified (C-terminus)) [Peptide 61]  16%
38. PWLDEFREKLNEXLEALKQKLK (PWLDEFREKLNE[Aib]LEALKQKLK; not fully specified (C-terminus)) [Peptide 64]  15%
39. PVLDLFDNLLDRLLDLLNKKLK [Peptide 173]  15%
40. PVLELFENLLERLLELLNKKLK [Peptide 175]  13%
41. PVLELWENLLERLLDALQKKLK [Peptide 176]  11%
42. GVLELFLNLLERLLDALQKKLK [Peptide 177]  10%
43. PVLDEFWEKLNEXLEALKQKLK (PVLDEFWEKLNE[Aib]LEALKQKLK; not fully specified (C-terminus)) [Peptide 73]  10%
44. PVLDLFERLLNELLEALQKKLK [Peptide 80]  9%
45. PVLELFDNLLEKLLEALQKKLR [Peptide 178]  9%
46. PVLELFDNLLDKLLDALQKKLR [Peptide 180]  8%
47. PVLELFENLLERWLDALQKKLK [Peptide 181]  8%
48. PVLDLFREGWEELKQKLK [Peptide 224]  8%
49. ~~LDEFREKLNEXLEALKQKLK (LDEFREKLNE[Aib]LEALKQKLK; not fully specified (C-terminus); printed as ~~LDEFREKLNEXLEALKQKLK) [Peptide 82]  8%
50. DWFKAFYDKVFEKFKEFF [Peptide 241]  8%
51. GIKKFLGSIWKFIKAFVG [Peptide 242, 18L peptide (Degreat et al., 1990), reference compound]  7%
52. PVLELFERLLDELLNALQKKLK [Peptide 86]  7%
53. PLLELFENLLEKLLDALQKKLK [Peptide 183]  6%
54. ~~~DEFREKLNEXLEALKQKLK (DEFREKLNE[Aib]LEALKQKLK; not fully specified (C-terminus); printed as ~~~DEFREKLNEXLEALKQKLK) [Peptide 90]  6%
55. PVLDLFRELLNELLE~~~~~~~ [Peptide 97]  4%
56. PVLELFENLLERLLDALQOOLO (PVLELFENLLERLLDALQ[Orn][Orn]L[Orn]; not fully specified (C-terminus)) [Peptide 185]  3%
57. PVLDLFRELLNEELEALKQKLK [Peptide 98]  2%
58. PVLDAFRELAEALAQLKK [Peptide 225]  1%
59. PVLDEFRELLNEELEALKQKAK (PVLDEFRELLNEELEALKQKLK) [Peptide 103]  1%
60. PVLDAFRELGEALLQLKK [Peptide 226]  1%
61. PVLDLFRELLEEGKQKLK* (not fully specified (N-terminus, C-terminus); printed as PVLDLFRELLEEGKQKLK*) [Peptide 229]  0%
62. PVLDEFREKLWEXWEALKQKLK (PVLDEFREKLWE[Aib]WEALKQKLK; not fully specified (C-terminus)) [Peptide 111]  0%
63. PVLDEFREKLNEELEAXKQKLK (PVLDEFREKLNEELEA[Aib]KQKLK; not fully specified (C-terminus)) [Peptide 119]  0%

tested on: not given; conditions: percent helicity, micelles

In order of falling “He (%)” value:
1. EWLKAFYEKVLEKLKELF* (Ac-EWLKAFYEKVLEKLKELF-NH2) [Peptide 238, Ac-18AMOD-C(O)NH2 peptide (Epand et al., 1987), reference compound]  72%
2. Ac-PVLDEFREKLNEELEALKQKLK-NH2 [Peptide 75, reference compound]  28%
